System: Saccharomyces cerevisiae
Assay: transcriptional activation domain activity (GFP:mCherry ratio, weighted mean of sorted bins, harmonized to initial dataset scale) (arbitrary fluorescence ratio units); higher = stronger transcriptional activation
Conditions: beta-estradiol 1 µM; induction time 4 h
Protocol: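 53-aa protein tiles (fungal proteins plus yeast TF control tiles) fused C-terminally to a DBD-estrogen-binding domain-mCherry synthetic TF, integrated in S. cerevisiae (URA3 locus) with a GFP reporter. Cells were induced with 1 uM beta-estradiol for 4 h at 30 C, FACS-sorted into 8 bins by GFP:mCherry ratio and barcodes sequenced. Activity is the read-weighted mean bin fluorescence (GFP:mCherry), averaged over barcodes (median 12); tiles under 50 reads were discarded. New active-learning values were harmonized by linear fit onto the scale of the initial (Hummel et al.) dataset. The assay saturates at low and high signal.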

Sequence	transcriptional activation domain activity
AKADGKRGRTGTGARRGKGKKVTREARGRRKVKRRRGARAGKGSAGRERERGE	34800
AKAEAEIKTEAEVKAEAEAPADEEAQTAGGKKKKAKNKKKKKAAAAAAAAAEA	36300
AKAEAKTTKTAKKPTLEKKATTSKATTAKKPAAKPATKAKETKAAKEPKAKAA	40800
AKANGAAKAAAVKPKDDSSDSSDSDSESDEEKAPAKAKEAKKAEVCTCCLSTV	17500
AKDEGEEEEDGSTSLNGTGKGTGTGKTHRGARGSKKGKKDGNETTSKAKGDGV	29500
AKDGEEEKEKPKRGRKRKEAPAAEGEAEGEAADDAEPPAKKTKPASKAAPASK	23100
AKDGELQTKKPRQRKPKAPAATGDADILEVKPKRTRTTRPKVSSYFAEPAAPL	< 6570
AKEDEGEKGKNKDKSKKEEEKKEEGEKKEEGEVKGVKEVEELKVEQPKEEVKL	17700
AKEEKKEEKKEEAKAAEEVKPEETPAVEETKAEEAKVDEAKTEETPAVAAAAA	15700
AKEERKAKKKAEKEKAAVAGDAMEVDDSADKKEKKEKKRKRRESEAAGAVKVE	13300
AKGAKKAKGAKKAKGAKKAAAGGAAAKAGAAAKAAKKAAKAKAAAAGGAAAAA	26000
AKGEAEPKAKAKGKGKAKAQAESEGEEEEEEEEEEEVKGKGKSRAKSKPKAKA	53900
AKILRELFLLYQPPEELIPSLQQWYLLVQACSGIVTSSDFGNTLFGIARLCLP	30500
AKKADAPAPAAPAKANKRKKAEESEAESEEEPAPAVKKPKVEQPKAAPKAAKA	26700
AKKAKQEATTEGGEEGSTGKTAKAKETPPTEQKEGGEKKAKATKARGKAGKEA	27300
AKKESKADGEEKPKAARGKKRKVDEEAEEEEGAEKPASKKAKPVSKAKSAAGS	17000
AKLALILVLFEVYVKWFKLEKLYGRSDFLLVESLHYQYFCILCLCVVEFVIWH	45300
AKLESCNPRAYLDPSTAPIATMARGNQRDKAREANLKKQAAQKKGNSMSGTEM	44300
AKMSVRPTVFGLNYIQLVAKLRLSLEDVRVEYLIYAAQILVLKDQFLRHEFHV	53000
AKNLHLHILRHPSKWMKLYFYLWPLIVFYHIPLQSFFDFNAVFMLLQVARFPN	50100
AKNLKYLFKVVLSMKGVPSFESSCKIKLLGIHFYYDQVYVYSLSMPMWDVFVF	73300

Sequence	transcriptional activation domain activity
AKPDVKKAKAAPVASPKPKAKAAKKVAEPAVEEKKVEEKAEKLAKKAKATKAE	32700
AKQGEDDAEKSKRGRKRKESETLEANGEEAGDDAEPAAKKAKPASKPASKAAA	30100
AKRARKSSSSAAAKEEEGQPQQTAPAAAANGTAADEARADTTTASTKSDKKQK	28800
AKRGQNEALAGAKPERGGAGAKQDARAARGRAQGSGVRGAGRGAAGRGQAQQV	41100
AKRGRASSNASSVQGSTGAASGSSRNKRGGAAEERAGSTSADLANKTADQRKR	22900
AKSAKGGSRRKSAATSTRTSAPRRSTGNDTGRSFKPAKDARGSSSGDAEDKIK	37200
AKSAQRRADEPGVMSLGELAVLWVKRARHLGQSLLRVVLVSYAVDLPANCVAL	30100
AKSLRLTIDEVKMLHRPVIWYLIVMLVDTLTATYLQYNGFLLHRTHLRETLSV	44200
AKSNKRRRASAPSSNTFKGSKRSASNASSQSKASNSNRVIKRARRASSASTKK	20900
AKVWKFHFHGSYTKISVHVINMIYCTMRGHEIPSLHIFKCDRLLTLSVLLGYI	58200
AKYVTTSMEVTPVTFGTYRTVFLPNGGLFFAILTTIRDFVTRHGLHSKIAMIF	54300
ALAVMFAEAVALSWWVSALKGQTLECLHFQWEVGQSVLKILLKRRFWGWVCVA	46700
ALCEDRSQTWHPGTQLDFPQELLDQLNYYLVNLRKYFNNESILFLVYLGCVIF	59600
ALCRVAARALDTVRMLSTKVRLMLVHAFRRLEPLDVAFQSRSAVPMMSLGIQL	66600
ALCSIAGLACFILFCFLRVRWPAMYAPRLNMKKHAPQPLPNSFLGWIVPVLRT	67400
ALDDKGNRDAFYSVLVNLMSKLCWAIVQYLESNSLRATYVIEARISEYTKFSI	42500
ALDFGLVVRHTTVQYPVPLRFGLLNGNFSFMPLIINSWNMISYILSIYSLVLL	64200
ALDSEQRRKGMSKPAPKKRGRKPNPNKKPKPPRDPNEPPKKRGRKPNPNKKVT	42300
ALEKDKKEEPKEDSKKDESKTEKKEEEDNKDENGRPKLVVKRLRKETTAAAAV	20000
ALGLLFVCEQIELYPQTARIFGLRLIYVILLLHLFLPFTDSLPWLKTLFSILT	54600
ALGLPARPVSHHILIAIPSGLPLRTHELFMQLLFEHLHLSAVMLVDRSIAQTY	55300

Sequence	transcriptional activation domain activity
ALHHVAWWIIIFELFFTVGIIVALGLGGFGPHRGTVCRYLLYTTCSQACNSLY	35200
ALHLVWSGSTIYVKPLPACLVDFDFFMRFISPFPHIYEDACGFLLTYARLIVH	89800
ALIHLPRPQNELVLTLIIRWLVRTTSPLGVIRAAQTHIGAIGYPDVWPTVLFF	68900
ALILIFSQLTFTPYALESRNLHVAVRIFRVLIDLLEQAKSGKIRLTILQFLMR	71100
ALKALSFARLLVIAVLMDSFLFVFTSAILVIGIGTSFNQIACQVGIWWCIFLY	58400
ALKILVLLIFLMDTLHTYGVISYQWGLFLFCHHNATSACLSVLPWEIFMAVVL	56300
ALKILVLLVFIMDTLHTYGIISYQWGLFLYCHHNASFACLSDLPWEVFMCVAL	41200
ALKKKDGDKDSADFLSQLRMGKSVLHGVDKEGRPVVSVRVRLHKGGEQTEKSL	36600
ALKLLVDKVEDPKKNGPKFLKRAQLVVTGFNSQLKARSQRIGHFVNLLQVYLT	61600
ALKVVVRVKMFGIGPLIYCSCLFVLLFSVVLLLLLAALYLMLQIYAALVVSAV	47100
ALLAISLTSFLCSSVFLEIETWCKKYRSHLLLVLMIPMVEPLISLFISFMWLL	62500
ALLCLCWAPEPRGLLALGIGCLVFLFLYFYPCCFFFFFFYSYLCFCTVVLFFP	53300
ALLFLNTLLELLESYHKSQYLAEILSRLQVDWRSLWSWLSVFIRSYANLKMGT	28300
ALLKLLVMMLWEIEFYEPCFGALRLMDYITSEICPDSNLSAEATLLRIRTLIR	58200
ALLNGQCGGANYTGPTVCVCGLNIIQGFMRIRKCSSLYMIVLALKLIFITFFS	90200
ALLSSLHFGLGSHFRDIILKHPQWLIPLMRWLYIQNATYFNCSGIVKMSLLFQ	46400
ALNAIIEGFQLFRSAFQPASLSVSMVHSVSVLVNWPSPYFTSLLLPGYDIGFP	62800
ALNDPSILETLSPFFQPFGVDVAHLPMTNPPIFQSSLPGCDEPIRRRRISISN	81300
ALNITYLFLGTYGWEYFGSCSVECALVCGRLAFRLSLIPYVLGRTSLLIYFIL	41000
